Data on 2 molecules can be found in paper PMC8225418.

Data set [1] deals with T1, wt Dpo4 (DNA polymerase IV) (Sulfolobus solfataricus, UniProt Q97W02 1-352).
T1 sequence: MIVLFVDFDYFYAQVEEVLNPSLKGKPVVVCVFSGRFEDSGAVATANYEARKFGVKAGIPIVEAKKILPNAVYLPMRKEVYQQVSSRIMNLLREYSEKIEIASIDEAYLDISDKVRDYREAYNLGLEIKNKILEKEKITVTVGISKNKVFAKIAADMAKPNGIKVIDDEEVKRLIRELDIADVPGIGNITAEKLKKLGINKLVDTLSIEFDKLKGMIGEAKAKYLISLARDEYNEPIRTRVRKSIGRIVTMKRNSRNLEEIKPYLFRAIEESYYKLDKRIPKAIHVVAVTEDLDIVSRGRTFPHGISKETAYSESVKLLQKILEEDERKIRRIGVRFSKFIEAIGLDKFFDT
Description: stopped-flow fluorescence anisotropy. On the technique in general: Polarisation of emitted light reports the rotation of a fluorescent probe.

The target in data set [2] is T1, wt Dpo4 (DNA polymerase IV). Description: stopped-flow FRET.

B1: Alexa488-labeled DNAOH (dsDNA)
DNA 1: CGAGCCGTCGCATCCTACCGC
DNA 2: GATGCTGCAGCGGTAGGATGCGACGGCTCG
modifications: 5-C6-amino-2'-deoxythymidine at T13 of primer (ninth base from 3' end)
Consider B1, for which the binding result in data set [1] was “binds”.

B2: DNAOH (21-mer/30-mer) (dsDNA)
DNA 1: CGAGCCGTCGCATCCTACCGC
DNA 2: B1 DNA 2
Consider B2, for which the binding result in data set [2] is “binds”.
